Test results from PMC7337520, “NF90 modulates processing of a subset of human pri-miRNAs”.

T1: NF90 (UniProt Q12906-2 1-702)
T1 sequence: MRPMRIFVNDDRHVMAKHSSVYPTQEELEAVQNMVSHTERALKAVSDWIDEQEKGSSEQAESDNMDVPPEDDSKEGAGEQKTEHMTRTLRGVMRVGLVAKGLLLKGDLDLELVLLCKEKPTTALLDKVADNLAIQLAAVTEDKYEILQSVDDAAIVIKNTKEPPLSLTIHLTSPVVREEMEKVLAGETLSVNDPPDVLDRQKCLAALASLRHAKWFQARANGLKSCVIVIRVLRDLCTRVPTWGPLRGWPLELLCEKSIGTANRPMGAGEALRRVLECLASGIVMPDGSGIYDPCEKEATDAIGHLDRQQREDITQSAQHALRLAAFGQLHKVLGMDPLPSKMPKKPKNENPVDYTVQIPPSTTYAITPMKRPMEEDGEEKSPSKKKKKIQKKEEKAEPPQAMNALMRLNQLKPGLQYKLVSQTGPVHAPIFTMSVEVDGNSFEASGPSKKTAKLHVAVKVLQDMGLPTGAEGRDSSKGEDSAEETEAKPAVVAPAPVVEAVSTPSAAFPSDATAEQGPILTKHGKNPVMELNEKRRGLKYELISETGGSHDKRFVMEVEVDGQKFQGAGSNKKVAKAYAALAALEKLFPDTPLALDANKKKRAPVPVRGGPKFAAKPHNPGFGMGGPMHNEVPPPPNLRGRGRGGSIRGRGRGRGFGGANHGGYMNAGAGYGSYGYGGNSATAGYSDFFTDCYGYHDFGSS

B1: pri-miR-186 WT (structured_RNA)
RNA: ACAGAACACCCAUCAUAUUCUUCCCAAACAUUUUUUCAUUGCUUGUAACUUUCCAAAGAAUUCUCCUUUUGGGCUUUCUGGUUUUAUUUUAAGCCCAAAGGUGAAUUUUUUGGGAAGUUUGAGCUAAAUUCCUUCAACCAAAAUAUACAAGUGAAGAAAAAAAAUUUGUAUUUAAACAUUUGCACAUUUACUUCUACCUGAAGCAUGUGAAUGUCAAC
B2: pri-miR-200a mutant #1 (structured_RNA)
RNA: CUGGCUGCUCACCGCUCCGGUUCUUCCCUGGGCUUCCACAGCAGCCCCUGCCUGCCUGGCGGGACCCCACGUCCCUCCCGGGCCCCUGUGAGCAUCUUACCGGACAGUGCUGGAUUUCCCAGCCUGUCUGGUAACGAUGUUCAAAGGUGACCCGCCGCUCGCCGGGGACACCACCGAGGCACAUC
B3: pri-miR-3173 WT (structured_RNA)
RNA: CAUUGGAGGUCUAGGGCUUAUUUUCCAGAUAGAAUUGAGUCUUUGUUGGUCUUGGGCCAGCUUCCCUGCCCUGCCUGUUUUCUCCUUUGUGAUUUUAUGAGAACAAAGGAGGAAAUAGGCAGGCCAGGGAAACGAUCUCUCUCCCUCUCUUGUGCCGAGGAAGAACU

Columns and labels:
NF90 [1] = target: T1, NF90; assay: EMSA; RNA EMSA as in ref 15; buffer, salt, pH and temperature not given; at least three replicates; details: protein: recombinant; label: radiolabel; hairpin
NF90 [2] = target: T1, NF90; assay: EMSA; enhanced vs WT; band intensities only in figure; RNA EMSA as in ref 15; buffer, salt, pH and temperature not given; at least three replicates; details: protein: recombinant; label: radiolabel; hairpin

Binder | binding result (NF90 [1]) | binding result (NF90 [2])
B1 | binds | 
B2 |  | binds
B3 | binds | 
